Values of other authors as cited in PMC10950897, “VCF1 is a p97/VCP cofactor promoting recognition of ubiquitylated p97-UFD1-NPL4 substrates” (Nature Communications, 2024).

Target: p97 (Homo sapiens) (UniProt P55072)
Sequence (P55072 2-806): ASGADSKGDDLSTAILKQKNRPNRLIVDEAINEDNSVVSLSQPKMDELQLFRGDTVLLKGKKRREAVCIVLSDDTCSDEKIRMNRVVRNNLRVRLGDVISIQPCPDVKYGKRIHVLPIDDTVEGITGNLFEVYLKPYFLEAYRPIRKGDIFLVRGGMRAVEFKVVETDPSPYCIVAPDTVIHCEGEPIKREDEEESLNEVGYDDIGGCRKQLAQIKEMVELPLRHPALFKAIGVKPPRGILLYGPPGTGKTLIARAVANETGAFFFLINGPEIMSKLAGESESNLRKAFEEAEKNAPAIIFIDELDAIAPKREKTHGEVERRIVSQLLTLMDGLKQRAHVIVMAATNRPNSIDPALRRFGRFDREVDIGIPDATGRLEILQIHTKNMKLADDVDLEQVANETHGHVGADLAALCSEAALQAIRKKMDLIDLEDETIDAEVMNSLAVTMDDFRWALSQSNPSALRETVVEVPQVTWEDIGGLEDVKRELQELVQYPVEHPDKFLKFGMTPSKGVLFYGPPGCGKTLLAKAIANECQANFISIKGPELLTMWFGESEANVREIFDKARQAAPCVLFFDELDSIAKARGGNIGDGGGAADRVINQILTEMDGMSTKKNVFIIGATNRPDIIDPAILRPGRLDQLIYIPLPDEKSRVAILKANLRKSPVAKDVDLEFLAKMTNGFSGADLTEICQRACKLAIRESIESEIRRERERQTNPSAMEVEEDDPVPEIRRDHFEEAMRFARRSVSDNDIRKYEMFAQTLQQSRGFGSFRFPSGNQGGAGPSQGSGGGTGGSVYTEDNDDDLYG

Sequence of p47 (Q9UNZ2 whole entry): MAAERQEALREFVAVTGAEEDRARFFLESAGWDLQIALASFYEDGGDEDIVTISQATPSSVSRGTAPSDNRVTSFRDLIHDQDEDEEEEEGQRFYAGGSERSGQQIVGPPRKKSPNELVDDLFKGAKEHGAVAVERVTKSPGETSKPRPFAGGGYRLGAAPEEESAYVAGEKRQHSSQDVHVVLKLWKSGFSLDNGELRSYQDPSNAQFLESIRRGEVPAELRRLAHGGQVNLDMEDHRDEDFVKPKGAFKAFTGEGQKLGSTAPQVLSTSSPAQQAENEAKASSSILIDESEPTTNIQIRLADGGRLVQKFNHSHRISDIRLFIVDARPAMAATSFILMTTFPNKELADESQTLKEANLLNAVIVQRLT

Kd: 350 nM
Substance: p47 (from UniProt Q9UNZ2)
